The data set in a line: label from the status in PepcDB records.

Turning to “IEVKQLEFPAFKVEIQKWLHFHINWQNDMDYIEKTNHTFYGAYVDNDLKGSICINEQGKISFIFIDKEYRNRGIGSKLLQVARDELNLESLLISFPNNSLLEGFLKKTGFEKNSLAQYEMYVLL”, the protein production entry is on record as “failed”.

For “IHNSRWIMTPEVKEDCKMRLFCLPFAGGGALAYRSWCRYMPPEIELCAVQLPGRENRIKDEKFYDINLLIDELVLQILPYLDKPFALYGHSMGGLISFELARRIRKVKGLTPKILFFSGSKAPQLYDHTKDISHLPDELFLKAIKSFNGMPDMFWQDRELIEFKLPTLRADFSVLEGYNYYNEEPLECPISALCGENDKIISKKDMEALALQTKNQFKLRMFDGDHFFINTCRSKVLKSIIEDLN”, the protein production result is “not failed”.

As to “IIGNAEAICLPELGITHLEARIDTGAQTSSLHVDNIDCFEKDGQSYVAFDLHPDVYHLEQVVRCTAKLKANRKVKSSNGTFEHRCVITTMLRLGDQEWPIDITLTNREKMTYMMLLGRQGMADKVLVDPSQSH”, the protein production entry is “failed”.

As for “IKHKQLIEQVMIYIEKHLAENITLQDIADELYISRNYLGQIFKKVVGESFKNYVTRLRMEKAKKMIQEGNFLIYEVSEKVGYVNPAYFTTMFKKYTGYTPRDLIQK”, the protein production entry is “failed”.

Regarding “ILHRDADFLLRALQPDDFVRTSRYENANREHLAPWEPLRDPGYFSVDNARARTLLQVASMDEGEALLLLLLDPDDGEVLGRCSYTNIVRGVFQACHLGFSLAAAAQGRGLMARALRVANRYCFEQLGLHRIMASHLPRNARSERLLESLGFEKEGYARAYLKIAGVWEDHVLR”, the protein production entry is recorded as “failed”.

Turning to “ISLAVLAVSIIFLGVTVIQNKKKIDPALKELSSVTQAMQKQIEGLKTETELLTQKQKKIQQDVQIKKYTLQQTAAEVKEVPQAVKEVWQA”, the protein production result is recorded as “not failed”.

Take “ISMIGERTNSNGSKAFREAMLSGDWEKCVDIAKQQTRDGAHMLDLCVDYVGRDGTADMATLAALLATSSTLPIMIDSTEPEVIRTGLEHLGGRSIVNSVNFEDGDGPESRYQRIMKLVKQHGAAVVALTIDEEGQARTAEHKVRIAKRLIDDITGSYGLDIKDIVVDCLTFPISTGQEETRRDGIETIEAIRELKKLYPEIHTTLGLSNISFGLNPAARQVLNSVFLNECIEAGLDSAIAHSSKILPMNRIDDRQREVALDMVYDRRTEDYDPLQEFMQL”: the protein production result is “failed”.

On to “ITARRRGELRRDALLKMGDQLRSLTTIQDMTGIASEIVGRALGAVRAGFGRVDPGEESVIIENDWSAAGYASLAGWHSLSDHPSFETANATKQPVVVADVAAAPPDNLSSQAKDDPGIGSLAVIPIENHDGSTALFFVHVAEPRDWSDDDLAFLRNVGDRLAAGVGRLDAEALQHTLNLELSHRMKNTLAMVMAIARQTLRSIP”, for which the protein production entry is “failed”.

On to “ITIRDDILFQSGSAELTAGKREIAKEIGELFAQGKGTMEGIVSGHTDNVPISTSIYSSNWELSVARAVNFMEAIIQENSEVNPGEFSARGYGEFRPVAKNDIAANREKNRRVEIMVRPINRDTLDEDE”, for which the protein production entry was “failed”.

Take “ITVADQISHWSAGRIKNRTRIPECIHSSAATTLAGPHTMEGESVKLSSQTLIQAGDDEKNQRTITVNPAHMGKAFKVMNELRSKQLLCDVMIVAEDVEIEAHRVVLAACSPYFCAMFTGDMSESKAKKIEIKDVDGQTLSKLIDYIYTAEIEVTEENVQVLLPAASLLQLMDVRQNCCDFLQSQLHPTNCLGIRAFADVHTCTDLLQQANAYAEQHFPEVMLGEEFLSLSLDQVCSLISSDKLTVSSEEKVFEAVISWINYEKETRLEHMAKLMEHVRLPLLPRDYLVQTVEEEALIKNNNTCKDFLIEAMKYHLLPLDQRLLIKNPRTKPRTPVSLPKVMIVVGGQAPKAIRSVECYDFEEDRWDQIAELPSRRCRAGVVFMAGHVYAVGGFNGSLRVRTVDVYDGVKDQWTSIASMQERRSTLGAAVLNDLLYAVGGFDGSTGLASVEAYSYKTNEWFFVAPMNTRRSSVGVGVVEGKLYAVGGYDGASRQCLSTVEQYNPATNEWIYVADMSTRRSGAGVGVLSGQLYATGGHDGPLVRKSVEVYDPGTNTWKQVADMNMCRRNAGVCAVNGLLYVVGGDDGSCNLASVEYYNPVTDKWTLLPTNMSTGRSYAGVAVIHKSL”: the protein production result is on record as “not failed”.

For “IVRDSQRHKQLPVDRRKSQMEEVQDELIHRLTIGRSAAQKKFHVPRQNVPVINITYDSTPEDVKTWLQSKGFNPVTVNSLGVLNGAQLFSLNKDELRTVCPEGARVYSQITVQKAALEDSSGSSELQEIMRRRQEKISAAASDSGVESFDEGSSH”, the protein production entry is “failed”.

Regarding “KASTKLHVGNISPTCTNQELRAKFEEYGPVIECDIVKDYAFVHMERAEDAVEAIRGLDNTEFQGKRMHVQLSTSRLRTA”, the protein production entry was “not failed”.

For the sequence “KERILSSERLAKIMMSELGDKRQEHLIAIYLDTQNRVIKKQVIFIGSVRRSVAEPREILHYACKSMATSLIIVHNHPSGSTYPSENDLRFTEKIKRSCDDLGIVFLDHIIVGKKEYYSFREETDLV”, the protein production entry is listed as “not failed”.

“KGSQVKLEVISDEKGAKPRTITLTREQIRLEDRAVKLTEKVINGDKIAILDIPSFYVGLTNDVKTQLQKVAKDNVSALVIDLRGNGGGALTEAIALSGLFIPSGPVVQVRDNNGRVRQDYDRDDVVYYKGPLVVIVNRFSASASEIFAAAMQDYGRALIVGEQTFGKGTVQQYRSLTRVYDQMLSPDWPSLGSVQYTIQKFYRINGGSTQLKGVTPDLLLPSFDNSEMGESNEDNALPW”: the protein production entry was “failed”.

On to “KGVVTIEQIVDTLPDRGRSCWHLGAVWALSQFQENELFLGMYPEEHFIEKPVKEAMARFRKNLEAIVSVIAERNKKKQLPYYYLSPDRIPNSVAI”, for which the protein production result is “failed”.

Turning to “KHSSTQQRLSRMLHEDGFVMHYQLLQSVVEKDVISFEALLRYQDREGNLCPPTFISDFQLLNMMPTLDKLVIDKVLTDMQKMDLNEDRRVAINISVASIEEHGFAEHVIDRLKFFSIPPHWLEIEITEEAILSDNHNLLSTLEILKSHGIKIAMDDFGTGYASFPHLLKYPFDKIKLDRSLLLDASTTKGKQLYQLIAQMGDVANCEVVAEGVETEDEFKFVAECGVDKVQGFLIARP”, the protein production entry is given as “failed”.

“KIERDKAERAKKYGGSVGSQPPPVAPEPGPVPSSPSQEPPTKREYDQCRIQVRLPDGTSLTQTFRAREQLAAVRLYVELHRGEELGGGQDPVQLLSGFPRRAFSEADMERPLQELGLVPSAVLIVAKKC”: the protein production entry is given as “failed”.

Regarding “KIGYGKANPTTRLWVGGLGPNTSLAALAREFDRFGSIRTIDHVKGDSFAYIQYESLDAAQAACAKMRGFPLGGPDRRLRVDFAK”, the protein production entry is reported as “not failed”.

As to “KKAKKVRFYRNGDRYFKGIVYAISPDRFRSFEALLADLTRTLSDNVNLPQGVRTIYTIDGLKKISSLDQLVEGESYVCGSIEPFKKLEYTKNVNPNWSVNVKT”, the protein production result was “not failed”.

Consider “KKLANADANNDSRVYVAVDGDIGVGYATMKVFMLSNDEYKILSGKYPRQVPVVMLDQIAVDKAYQGKGIGKRLMRKVLEATVLVNELAAAKGLALWAHPRAKDFYESLGFEAIPDATKQVQDVELTLMFIHVETILDALK”, for which the protein production entry is listed as “failed”.

Turning to “KKLCGYLSKFGGKGPIRGWKSRWFFYDERKCQLYYSRTAQDANPLDSIDLSSAVFDCKADAEEGIFEIKTPSRVITLKAATKQAMLYWLQQLQMKRWEFHNSPPAP”, the protein production result is listed as “not failed”.

“KLIGITGMPGSGKSAITKLAEKYKIVVVSMGDVVRYETLKQGMPLNPENVGNTAVKLREIYGKEAIAVPCLNYVNEKYNNEDFVIIEGIRSIYEVNYIKKHAELDIIAIHSSPKTRFERLSGRNREDDSNDWNTFVERDERELNFSIGRVISLADYMVVNEGNYMDFVNDLENTFKKIINV”: the protein production entry is “failed”.

In the case of “KMLDEKFYSKLLGEELDLIICLPPDFSPLYKYPLFIVQDGKDYFQFGKLARHSEELAVNEQIQKAIFIGIPYKTVMDRREKYHPDGEQNEAYIRFLAFELVPYLEERFPSFQMPTSRFL”, the protein production entry was “not failed”.

Take “KNTGSKHNFLNHGLPLNLAIKPYLALKGSVDFPAENGVQNTESTQEKREIGDEENSAKFPIGRRDFDMLRCMLGRVYRPCWQV”: the protein production result is listed as “failed”.

In the case of “KNVVHQLSVTLEDLYNGATRKLALQKNVICDKCEGRGGKKGAVECCPNCRGTGMQIRIHQIGPGMVQQIQSVCMECQGHGERISPKDRCKSCNGRKIVREKKILEVHIDKGMKDGQKITFHGEGDQEPGLEPGDIIIVLDQKDHAVFTRRGEDLFMCMDIQLVEALCGFQKPISTLDNRTIVITSHPGQIVKHGDIKCVLNEGMPIYRRPYEKGRLIIEFKVNFPENGFLSPDKLSLLEKLLPERKEVEETDEMDQVELVDFDPNQERRRHYNGEAYEDDEHHPRGGVQCQTS”, the protein production entry is on record as “failed”.

As for “KNYDLSDLPGPPSKPQVTDVTKNSVTLSWQPGTPGTLPASAYIIEAFSQSVSNSWQTVANHVKTTLYTVRGLRPNTIYLFMVRAINPQGLSDPSPMSDPVRTQD”, the protein production entry is reported as “not failed”.

On to “KPQEGIGARCRRALKDLPLTNLSRLLQCELAEGKALRWGADSLEPAAVVGLNSLGSLVWAPGQPSRWPVPLLLLGGTLDLITPPLDEQLGVFSALASHPSSRVVVVEGASHFSPIRVGEPMA”, for which the protein production entry is recorded as “failed”.

Regarding “KQFPGYPEFVLVEIETQRGCPKAMGIGGCSFCTEPVRYKVVENRPQEYVAQEVETFYNMGIRHFRIGRQSCIFSYKARPNGRVPIPKPEEVEKLFKAVRLAAPNVKTLHVDNANPAVIANYPEESRRIAKAIIEYGTPGNVVAFGLETADPKVARINNLNATPEETYEAVKIINEVGGRRGYNGLPWLLPGINIIFGLPGETKRTYELTYEFLKKILDDGLMVRRINIRQVVVFPGTPLWNMRDKVKTEKHKALIEHYRHKIRHEIDLPMLKRVVPVG”, the protein production entry is listed as “failed”.

On to “KSEAGAGKKVQVEFVSANPTGPLHIGHGRGAAIGDTICRLLAAIGWDVTREFYYNDAGQQIANLALSVQARCLGVEPGGPLWPTDGYQGEYIKDVARSYLNRETVDAGDQHVTAAGDPHDVEAIRRFAVAYLRREQDQDLRAFDVGFDVYFLESSLYAEGRVDDVVQRIIAKGHAYEQDGALWLRTTEFGDDKDRVMRKSDGSYTYFVPDVAYHLNKWERGFIRVVNEQGADHHSTITRVRAGLQALDAGIPKGWPEYVLHQMVTVMRGGEEVKISKRAGSYVTLRDLVDEVGRDATRFFFLMRKPDSQLVFDIDLAKQQTLENPVYYVQYAHARICSIFENAADKGVVPPT”, for which the protein production entry is on record as “failed”.

With “KSIRLAKEKESQADYISTYVEWQYIDKNITQCFDKMTNMKLEVAWKAKKKDTVVQIHNQDFTVDLSTNTATAPQGQTFTVQRLVKA”, the protein production result is “not failed”.

Regarding “KSLTLVLHRDSGSLGFNIIGGRPSVDNHDGSSSEGIFVSKIVDSGPAAKEGGLQIHDRIIEVNGRDLSRATHDQAVEAFKTAKEPIVVQVLRRT”, the protein production result was “not failed”.

With “KTITGFYPLNQGHDALLARTSLIESAQKSLDLQYYIYRGDETSQLITWRLYEAAKRGVRIRLLLDDMQKRNDNVMAALNAHPNIEIRLFNPHQYRSARIFALTSDFERLNRRMHNKSLIADSVSAIVGGRNIGNEYFSFESEVEFGDFDLLLYGEAVQQTADQFDLYWNSVHAVPMEWISPQSQSVSDAAIQKQVTKLNLQEKFSSGRYDFTALDMYQ”, the protein production entry is given as “failed”.

Regarding “KTMKMRKFTIADASLERSPGQEADISVGNLVDERHGGPITIGYGRYAPGQSLTETMAVDDVMIVLEGRLSVSTDGETVTAGPGEIVYMPKGETVTIRSHEEGALTAYVTYPHWRPAHA”, the protein production entry was “not failed”.
